Columns and labels:
mouse 3T3-L1 fibroblasts = experiment: Gene expression in 3T3-L1 fibroblasts (q-PCR); assay type: cell-based; settings: 3T3-L1 fibroblasts
Experimental: 3T3-L1 cells (a murine fibroblast cell line) were split onto 12-well plates and grown to confluence before inducing differentiation by treatment with 86 nM insulin, 0.1 μM dexamethasone, and 250 μM methyl isobutylxanthine. Two days after induction, cells were switched to an inducing medium in the presence of recombinant RUCILPs, or commercial recombinant irisin (Sigma, #SRP8039-10UG and Phoenix pharmaceuticals, #067-29A), or phosphate buffered saline (PBS) for two days. Subsequently, cells were maintained in 86 nM insulin in the presence of indicated concentrations of recombinant RUCILPs, 21-AABP1, commercial recombinant irisin, or PBS for four days with medium change every other day for 6 days. Cells were then harvested for q-PCR analysis as described in standard protocol for gene expression analysis.
Total RNA from cells or tissues was extracted according to the instructions provided by manufacturer of RNeasy mini kit (Qiagen) using QIAzol lysis reagent (Qiagen), followed by measurements of RNA purities and concentrations by NanoDrop 2000 spectrophotometer (Thermo Scientific). A total of 1 μg of RNA was used for the reverse transcription to cDNA using the iScript™ Select cDNA Synthesis Kit (Bio-Rad Laboratories). The samples were subjected to real-time PCR using the LC480 system (Roche Diagnostics) after premixing with Precision®PLUS Master Mix (Primer Design). For each indicated gene, samples were run in duplicate in a 384-well plate and ΔΔCt method was used for quantifying the expressions after normalization to the housekeeping Rpl36 or GAPDH gene.
Firstly, we tested the dose-response effects of RUCILPs on gene expression in mouse fibroblasts (3T3-L1), mouse […] (MLO-Y4), and mouse myoblasts (C2C12). To estimate effect on adipocyte browning, we measured expression of Ucp1, Prdm16, Pgc1a, Dio2 and Cox2, and expression of AdipoQ was measured as a marker of white adipocytes. As a marker of bone formation, we measured expression of Sclerostin; and markers of myotube formation included expression of Heyl, Sox3, and Stat3.

integrin αV/β5 receptor = integrin αV/β5 receptor (Homo sapiens, UniProt P06756+P18084); experiment: SPOT peptide microarray (μSPOT) binding assay; settings: for relative integrin αV/β5 binding in 15-mer peptide library screening: His-tag integrin αV/β5 2.5 nM, semi-quantitative; for relative integrin αV/β5 binding, truncation scanning library of 19-mer epitopes: integrin αV/β5 2.5 nM
Experimental: μSPOT peptide arrays^25 (CelluSpots, Intavis AG, Cologne, Germany) were synthesized using a RePepSL synthesizer (Intavis AG) on acid labile, amino functionalized, cellulose membrane discs (Intavis AG) containing 9-fluorenylmethy-loxycarbonyl-β-alanine (Fmoc-β-Ala) linkers (minimum loading 1.0 μmol/cm). Synthesis was initiated by Fmoc deprotection using 20% piperidine in N-methylpyrrolidone (NMP) (1×2 and 1 ×4 μL, 3 and 5 min, respectively) followed by washing with dimethylforma-mide (DMF, 7×100 μL per disc) and ethanol (EtOH, 3×300 μL per disc). The loading of the discs were reduced to 50%, by using a mixture of Fmoc-Gly-OH and Boc-Gly-OH (0.25 M: 0.25 M in NMP). All couplings were achieved using 1.2 μL of coupling solution consisting of preactivated amino acids (AAs, 0.5 M) with ethyl 2-cyano-2-(hydroxyimino)acetate oxyma (1.5 M) and N,N′-diisopropylcarbodiimide (DIC, 1.1 M) in NMP (2:1:1, AA:oxyma:DIC). The couplings were carried out 6 times (5, 10, 20, 30, 30, and 30 min, respectively), and subsequently, the membrane was capped twice with capping mixture (5% […] in NMP), followed by washes with DMF (7×100 μL per disc). After chain elongation, final Fmoc deprotection was performed with 20% piperidine in NMP (3×4 μL, 5 min each), followed by 6× washes with DMF, subsequent N-terminal acetylation with capping mixture (3×4 μL, 5 min each) and final washes with DMF (7×100 μL per disc) and EtOH (7×200 μL per disc). Dried cellulose membrane discs were transferred to 96 deep-well blocks and were treated with the side-chain deprotection solution consisting of 80% TFA, 12% DCM, 5% H2O, and 3% TIPS (150 μL per well) for 1.5 h at room temperature (rt). Afterward, the deprotection solution was removed, and the discs were solubilized overnight at rt using a solvation mixture containing 88.5% TFA, 4% trifluoromethansufonic acid (TFMSA), 5% H2O, and 2.5% TIPS (250 μL per well). The resulting peptide-cellulose conjugates were precipitated with ice-cold ether (700 μL per well) and spun down at 1000 rpm for 90 min, followed by an additional wash of the formed pellet with ice-cold ether. The resulting pellets were redissolved in DMSO (250 μL per well) to give final stocks, which were transferred to a 384-well plate and printed (in duplicates) on white coated CelluSpots blank slides (76×26 mm, Intavis AG) using a SlideSpotter robot (Intavis AG).
After the peptide array slides were rinsed with 100 mM phosphate buffered saline (PBS) (pH 7.4), the arrays were blocked with 3% bovine serum albumin (BSA) in PBS for >2 h at rt. Subsequently, the arrays were incubated with His-tagged Integrin receptor (2.5 nM) in blocking for 1 h at rt. After 5×1 min washes with blocking buffer the slides were probed with HRP-conjugated 6x-His tag antibody (1:10000, ab184607, abcam) for 0.5 h at rt. Finally, the slides were washed 3×1 min with PBS, 2×1 min with PBST, 2×1 min PBS at rt. The washed arrays visualized using SuperSignal West Femto Maximum Sensitivity Substrate (Thermo Scientific) with Fusion FX SPectra multimodal imaging platform (Vilber). The resulting blots were analyzed using the Array Analyze Software (Active Motif), which defines the error range of each data set by comparing the intensities of each peptide duplicate on the analyzed array.
Prior to the initial screening, we confirmed that the secondary antibody produces no non-specific binding (‘background binding’) to the coated microscopic slide (FIG. 41A). The relative binding affinity of the resulting peptides was then evaluated in a semi-quantitative manner by screening the μSPOT peptide array with recombinantly expressed His-tag integrin αV/β5 (2.5 nM), followed by incubation with a horse radish peroxidase (HRP) conjugated 6x-His antibody (FIG. 41B). […]

integrin receptor = experiment: Integrin inhibitor pre-treatment in RUCILP2 cellular studies; assay type: cell-based; settings: 10 μM for 10 minutes before RUCILP2
Experimental: Human white pre-adipocytes were cultured until 80% confluent and switched into differentiation media (with 0.3 ml/ml fetal calf serum, 8 μg/ml d-biotin, 0.5 μg/ml insulin, 400 ng/ml dexamethasone). The differentiation process to mature adipocytes was completed after 12-14 days. The treatment of RUCILP2 and irisin started from the third day of differentiation. For integrin complex inhibition, cells were treated with 10 μM of CycloRGDyK (Selleckchem, #S7844) for 10 minutes and washed with PBS before treated with RUCILP2 and irisin, respectively. Cells were harvested after 14 days of differentiation and thermogenesis gene were quantified by quantitative polymerase chain reaction (q-PCR).
Two days after induction, cells were switched to inducing medium in the presence of 15 nM recombinant RUCILP2, or commercial recombinant irisin (Sigma, #SRP8039-10UG and Phoenix pharmaceuticals, #067-29A), or saline for two days. After that, cells were maintained in 86 nM insulin and 1 nM T3 in the presence of indicated concentrations of recombinant RUCILP2 or commercial recombinant irisin, or saline for four days with medium change every other day. For inhibition of the integrin complex, cells were treated with 10 μM of cRGDyK for 10 minutes before treatment with recombinant RUCILP2 or commercial recombinant irisin or saline every other day during 6 days of differentiation. […]

integrin αV/β5 receptor, sequence (P06756 31-992 limits assumed): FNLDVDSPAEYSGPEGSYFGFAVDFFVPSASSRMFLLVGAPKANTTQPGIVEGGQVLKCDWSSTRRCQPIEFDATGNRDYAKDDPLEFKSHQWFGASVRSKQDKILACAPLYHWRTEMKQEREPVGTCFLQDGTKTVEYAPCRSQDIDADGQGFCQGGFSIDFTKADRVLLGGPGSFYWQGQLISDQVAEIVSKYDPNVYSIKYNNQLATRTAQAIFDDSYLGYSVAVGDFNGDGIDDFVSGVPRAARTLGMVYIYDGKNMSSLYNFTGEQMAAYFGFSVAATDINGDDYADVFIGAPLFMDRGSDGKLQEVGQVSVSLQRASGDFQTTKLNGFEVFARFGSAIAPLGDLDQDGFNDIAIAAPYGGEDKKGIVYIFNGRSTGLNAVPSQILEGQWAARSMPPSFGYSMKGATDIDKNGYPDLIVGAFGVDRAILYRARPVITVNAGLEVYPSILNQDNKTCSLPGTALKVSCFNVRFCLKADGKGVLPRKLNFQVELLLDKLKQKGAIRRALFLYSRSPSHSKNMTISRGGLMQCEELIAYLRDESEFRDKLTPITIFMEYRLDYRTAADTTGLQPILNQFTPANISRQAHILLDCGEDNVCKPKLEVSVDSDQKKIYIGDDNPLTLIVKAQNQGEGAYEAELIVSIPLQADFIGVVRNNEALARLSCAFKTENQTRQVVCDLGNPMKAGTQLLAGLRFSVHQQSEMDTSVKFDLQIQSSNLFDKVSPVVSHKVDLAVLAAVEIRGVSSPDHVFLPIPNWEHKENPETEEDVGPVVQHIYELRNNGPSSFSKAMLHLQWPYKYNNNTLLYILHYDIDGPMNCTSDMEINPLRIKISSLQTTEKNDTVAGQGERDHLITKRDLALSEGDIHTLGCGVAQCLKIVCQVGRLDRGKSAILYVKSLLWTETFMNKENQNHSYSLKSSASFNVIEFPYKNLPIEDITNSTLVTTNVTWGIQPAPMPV
integrin αV/β5 receptor, sequence (P18084 24-719 limits assumed): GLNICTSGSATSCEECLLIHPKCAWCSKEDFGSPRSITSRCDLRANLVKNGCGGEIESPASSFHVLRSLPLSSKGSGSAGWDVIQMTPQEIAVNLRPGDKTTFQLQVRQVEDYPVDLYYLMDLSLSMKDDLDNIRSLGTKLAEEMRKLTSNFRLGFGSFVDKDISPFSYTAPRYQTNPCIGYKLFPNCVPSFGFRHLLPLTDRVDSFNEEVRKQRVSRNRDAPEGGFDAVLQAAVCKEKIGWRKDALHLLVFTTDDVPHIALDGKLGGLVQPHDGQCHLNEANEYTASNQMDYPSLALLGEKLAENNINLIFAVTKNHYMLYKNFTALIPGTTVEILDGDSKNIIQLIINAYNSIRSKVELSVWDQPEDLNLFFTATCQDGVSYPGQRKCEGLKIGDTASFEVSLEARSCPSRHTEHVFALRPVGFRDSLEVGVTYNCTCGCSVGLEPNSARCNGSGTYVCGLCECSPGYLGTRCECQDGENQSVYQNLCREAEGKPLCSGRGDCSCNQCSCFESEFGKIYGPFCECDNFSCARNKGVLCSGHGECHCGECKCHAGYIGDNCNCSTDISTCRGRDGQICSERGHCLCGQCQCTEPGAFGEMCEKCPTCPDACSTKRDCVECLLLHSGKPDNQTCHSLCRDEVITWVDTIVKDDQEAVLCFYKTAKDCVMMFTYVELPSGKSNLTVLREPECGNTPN

| Substance | relative integrin αV/β5 binding in 15-mer peptide library screening (integrin αV/β5 receptor) | further results |
| --- | --- | --- |
| 21-AABP1: the 21-amino acids fragment derived from RUCILP1 (DGTTYSVEVTAVDAAGEESAK; Ruminococcus torques) |  | effects on browning markers Ucp1, Prdm16, Dio2 (mouse 3T3-L1 fibroblasts): non-significant |
| SEQ ID NO: 183: 19-mer binding epitope of RUCILP2, residues 12-30, ETSAKASWKNAADGKEAAG (Alanine scanning sequence; (1)..(19) Alanine scanning sequence of RUCILP1) | binding epitopes |  |
| SEQ ID NO: 95: C-terminal 15-mer of RUCILP1, residues 74-88, ESAKSEKVEFTTVKK (Ruminococcus torques) | relatively high affinity |  |
| SEQ ID NO: 235: 9-mer truncation of RUCILP1 epitope, residues 12-20, ETSAKVSWK (Ruminococcus torques) |  | relative integrin αV/β5 binding, truncation scanning library of 19-mer epitopes (integrin αV/β5 receptor): high binding affinity |
| SEQ ID NO: 168: C-terminal 15-mer of RUCILP2, residues 73-87, NESVKSEKVTFKTLK (Ruminococcus torques) | relatively high affinity |  |
| SEQ ID NO: 165: 15-mer of RUCILP2, residues 70-84, AAGNESVKSEKVTFK (Ruminococcus torques) | significant binding |  |
| SEQ ID NO: 169: 19-mer binding epitope of RUCILP1, residues 12-30, ETSAKVSWKNAADGKEAAG (Ruminococcus torques) | binding epitopes |  |
| SEQ ID NO: 268: 9-mer truncation of RUCILP2 epitope, residues 12-20, ETSAKASWK (Ruminococcus torques) |  | relative integrin αV/β5 binding, truncation scanning library of 19-mer epitopes (integrin αV/β5 receptor): high binding affinity |
| CycloRGDyK |  | effect of pre-treatment on cellular effects of RUCILP2 (integrin receptor): blocked |

Reference: patent US20240336661A1, “PEPTIDES DERIVED FROM RUMINOCOCCUS TORQUES” (University of Copenhagen, priority 2021, published 2024)
